Assay results from patent US20250171562A1.

Biological target: mixture of three Der p 2 specific recombinant human IgE clones H10, H12, P4E (human) (UniProt P01854)
Assay: RBL-SX38 IgE displacement, FACS

Chain of mixture of three Der p 2 specific recombinant human IgE clones H10, H12, P4E (human) (P01854 other isoform, or with tags, fused parts or gaps): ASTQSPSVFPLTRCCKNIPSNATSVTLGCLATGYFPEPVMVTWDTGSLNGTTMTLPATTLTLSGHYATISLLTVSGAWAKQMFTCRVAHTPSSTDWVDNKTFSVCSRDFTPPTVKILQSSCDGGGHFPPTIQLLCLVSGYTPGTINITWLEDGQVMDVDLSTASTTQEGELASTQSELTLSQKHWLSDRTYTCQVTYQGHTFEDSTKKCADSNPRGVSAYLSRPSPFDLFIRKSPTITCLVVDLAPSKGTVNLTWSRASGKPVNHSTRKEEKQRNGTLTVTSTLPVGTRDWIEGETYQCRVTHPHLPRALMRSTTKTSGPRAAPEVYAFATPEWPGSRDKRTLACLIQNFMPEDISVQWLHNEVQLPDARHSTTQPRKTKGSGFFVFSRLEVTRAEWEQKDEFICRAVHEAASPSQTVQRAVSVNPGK

Binder	EC50	Max effect/effect 1 µM
NIgG4B1A1(G4S)3 (Fc fusion) chain 1: QVQLQESGGGLVQTGGSLRLSCAVHGRTFSNTGMGWFRQAPGNERQFVAIISPSGTSTYYADSVKGRFTISRDPAKNTVYLQMNSLKMDDTAVYYCAASYGSNWSTLRHQRRNEYDAWGQGTQVAVSGGGGSGGGGSGGGGSGPPCPPCPAPEFLGGPSVFLFPPKPKDTLMISRTPEVTCVVVDVSQEDPEVQFNWYVDGVEVHNAKTKPREEQFNSTYRVVSVLTVLHQDWLNGKEYKCKVSNKGLPSSIEKTISKAKGQPREPQVYTLPPCQEEMTKNQVSLWCLVKGFYPSDIAVEWESNGQPENNYKTTPPVLDSDGSFFLYSRLTVDKSRWQEGNVFSCSVMHEALHNHYTQKSLSLSLGK chain 2: EVQLLESGGGLVQPGGSLRLSCAASGFTFGNYDMAWVRQAPGKRPEWVSSIDTGGDITHYADSVKGRFTISRDNAKNTLYLQMNSLRPEDTAVYWCATDEEYALGPNEFDYYGQGTLVTVSSGGGGSGGGGSGGGGSGPPCPPCPAPEFLGGPSVFLFPPKPKDTLMISRTPEVTCVVVDVSQEDPEVQFNWYVDGVEVHNAKTKPREEQFNSTYRVVSVLTVLHQDWLNGKEYKCKVSNKGLPSSIEKTISKAKGQPREPQVCTLPPSQEEMTKNQVSLSCAVKGFYPSDIAVEWESNGQPENNYKTTPPVLDSDGSFFLVSRLTVDKSRWQEGNVFSCSVMHEALHNHYTQKSLSLSLGK	2.6 nM	99%
NIgG4A1A1(RS) (Fc fusion) chain 1: EVQLLESGGGLVQPGGSLRLSCAASGFTFGNYDMAWVRQAPGKRPEWVSSIDTGGDITHYADSVKGRFTISRDNAKNTLYLQMNSLRPEDTAVYWCATDEEYALGPNEFDYYGQGTLVTVSSRSGPPCPPCPAPEFLGGPSVFLFPPKPKDTLMISRTPEVTCVVVDVSQEDPEVQFNWYVDGVEVHNAKTKPREEQFNSTYRVVSVLTVLHQDWLNGKEYKCKVSNKGLPSSIEKTISKAKGQPREPQVYTLPPCQEEMTKNQVSLWCLVKGFYPSDIAVEWESNGQPENNYKTTPPVLDSDGSFFLYSRLTVDKSRWQEGNVFSCSVMHEALHNHYTQKSLSLSLGK chain 2: EVQLLESGGGLVQPGGSLRLSCAASGFTFGNYDMAWVRQAPGKRPEWVSSIDTGGDITHYADSVKGRFTISRDNAKNTLYLQMNSLRPEDTAVYWCATDEEYALGPNEFDYYGQGTLVTVSSRSGPPCPPCPAPEFLGGPSVFLFPPKPKDTLMISRTPEVTCVVVDVSQEDPEVQFNWYVDGVEVHNAKTKPREEQFNSTYRVVSVLTVLHQDWLNGKEYKCKVSNKGLPSSIEKTISKAKGQPREPQVCTLPPSQEEMTKNQVSLSCAVKGFYPSDIAVEWESNGQPENNYKTTPPVLDSDGSFFLVSRLTVDKSRWQEGNVFSCSVMHEALHNHYTQKSLSLSLGK	–	45%
NIgG4A1A1(G4S)1 (Fc fusion) chain 1: EVQLLESGGGLVQPGGSLRLSCAASGFTFGNYDMAWVRQAPGKRPEWVSSIDTGGDITHYADSVKGRFTISRDNAKNTLYLQMNSLRPEDTAVYWCATDEEYALGPNEFDYYGQGTLVTVSSGGGGSGPPCPPCPAPEFLGGPSVFLFPPKPKDTLMISRTPEVTCVVVDVSQEDPEVQFNWYVDGVEVHNAKTKPREEQFNSTYRVVSVLTVLHQDWLNGKEYKCKVSNKGLPSSIEKTISKAKGQPREPQVYTLPPCQEEMTKNQVSLWCLVKGFYPSDIAVEWESNGQPENNYKTTPPVLDSDGSFFLYSRLTVDKSRWQEGNVFSCSVMHEALHNHYTQKSLSLSLGK chain 2: EVQLLESGGGLVQPGGSLRLSCAASGFTFGNYDMAWVRQAPGKRPEWVSSIDTGGDITHYADSVKGRFTISRDNAKNTLYLQMNSLRPEDTAVYWCATDEEYALGPNEFDYYGQGTLVTVSSGGGGSGPPCPPCPAPEFLGGPSVFLFPPKPKDTLMISRTPEVTCVVVDVSQEDPEVQFNWYVDGVEVHNAKTKPREEQFNSTYRVVSVLTVLHQDWLNGKEYKCKVSNKGLPSSIEKTISKAKGQPREPQVCTLPPSQEEMTKNQVSLSCAVKGFYPSDIAVEWESNGQPENNYKTTPPVLDSDGSFFLVSRLTVDKSRWQEGNVFSCSVMHEALHNHYTQKSLSLSLGK	–	44%
NIgG4A1A1(G4S)2 (Fc fusion) chain 1: EVQLLESGGGLVQPGGSLRLSCAASGFTFGNYDMAWVRQAPGKRPEWVSSIDTGGDITHYADSVKGRFTISRDNAKNTLYLQMNSLRPEDTAVYWCATDEEYALGPNEFDYYGQGTLVTVSSGGGGSGGGGSGPPCPPCPAPEFLGGPSVFLFPPKPKDTLMISRTPEVTCVVVDVSQEDPEVQFNWYVDGVEVHNAKTKPREEQFNSTYRVVSVLTVLHQDWLNGKEYKCKVSNKGLPSSIEKTISKAKGQPREPQVYTLPPCQEEMTKNQVSLWCLVKGFYPSDIAVEWESNGQPENNYKTTPPVLDSDGSFFLYSRLTVDKSRWQEGNVFSCSVMHEALHNHYTQKSLSLSLGK chain 2: EVQLLESGGGLVQPGGSLRLSCAASGFTFGNYDMAWVRQAPGKRPEWVSSIDTGGDITHYADSVKGRFTISRDNAKNTLYLQMNSLRPEDTAVYWCATDEEYALGPNEFDYYGQGTLVTVSSGGGGSGGGGSGPPCPPCPAPEFLGGPSVFLFPPKPKDTLMISRTPEVTCVVVDVSQEDPEVQFNWYVDGVEVHNAKTKPREEQFNSTYRVVSVLTVLHQDWLNGKEYKCKVSNKGLPSSIEKTISKAKGQPREPQVCTLPPSQEEMTKNQVSLSCAVKGFYPSDIAVEWESNGQPENNYKTTPPVLDSDGSFFLVSRLTVDKSRWQEGNVFSCSVMHEALHNHYTQKSLSLSLGK	–	36%
NIgG4A1A1(G4S)3 (Fc fusion) chain 1: EVQLLESGGGLVQPGGSLRLSCAASGFTFGNYDMAWVRQAPGKRPEWVSSIDTGGDITHYADSVKGRFTISRDNAKNTLYLQMNSLRPEDTAVYWCATDEEYALGPNEFDYYGQGTLVTVSSGGGGSGGGGSGGGGSGPPCPPCPAPEFLGGPSVFLFPPKPKDTLMISRTPEVTCVVVDVSQEDPEVQFNWYVDGVEVHNAKTKPREEQFNSTYRVVSVLTVLHQDWLNGKEYKCKVSNKGLPSSIEKTISKAKGQPREPQVYTLPPCQEEMTKNQVSLWCLVKGFYPSDIAVEWESNGQPENNYKTTPPVLDSDGSFFLYSRLTVDKSRWQEGNVFSCSVMHEALHNHYTQKSLSLSLGK chain 2: EVQLLESGGGLVQPGGSLRLSCAASGFTFGNYDMAWVRQAPGKRPEWVSSIDTGGDITHYADSVKGRFTISRDNAKNTLYLQMNSLRPEDTAVYWCATDEEYALGPNEFDYYGQGTLVTVSSGGGGSGGGGSGGGGSGPPCPPCPAPEFLGGPSVFLFPPKPKDTLMISRTPEVTCVVVDVSQEDPEVQFNWYVDGVEVHNAKTKPREEQFNSTYRVVSVLTVLHQDWLNGKEYKCKVSNKGLPSSIEKTISKAKGQPREPQVCTLPPSQEEMTKNQVSLSCAVKGFYPSDIAVEWESNGQPENNYKTTPPVLDSDGSFFLVSRLTVDKSRWQEGNVFSCSVMHEALHNHYTQKSLSLSLGK	–	40%
CIgG4A1A1(RS) (Fc fusion) chain 1: GPPCPPCPAPEFLGGPSVFLFPPKPKDTLMISRTPEVTCVVVDVSQEDPEVQFNWYVDGVEVHNAKTKPREEQFNSTYRVVSVLTVLHQDWLNGKEYKCKVSNKGLPSSIEKTISKAKGQPREPQVYTLPPCQEEMTKNQVSLWCLVKGFYPSDIAVEWESNGQPENNYKTTPPVLDSDGSFFLYSRLTVDKSRWQEGNVFSCSVMHEALHNHYTQKSLSLSLGKRSEVQLLESGGGLVQPGGSLRLSCAASGFTFGNYDMAWVRQAPGKRPEWVSSIDTGGDITHYADSVKGRFTISRDNAKNTLYLQMNSLRPEDTAVYWCATDEEYALGPNEFDYYGQGTLVTVSS chain 2: GPPCPPCPAPEFLGGPSVFLFPPKPKDTLMISRTPEVTCVVVDVSQEDPEVQFNWYVDGVEVHNAKTKPREEQFNSTYRVVSVLTVLHQDWLNGKEYKCKVSNKGLPSSIEKTISKAKGQPREPQVCTLPPSQEEMTKNQVSLSCAVKGFYPSDIAVEWESNGQPENNYKTTPPVLDSDGSFFLVSRLTVDKSRWQEGNVFSCSVMHEALHNHYTQKSLSLSLGKRSEVQLLESGGGLVQPGGSLRLSCAASGFTFGNYDMAWVRQAPGKRPEWVSSIDTGGDITHYADSVKGRFTISRDNAKNTLYLQMNSLRPEDTAVYWCATDEEYALGPNEFDYYGQGTLVTVSS	–	11%
CIgE4A1A1(GS)1 (Fc fusion) chain 1: GPPCPPCPAPEFLGGPSVFLFPPKPKDTLMISRTPEVTCVVVDVSQEDPEVQFNWYVDGVEVHNAKTKPREEQFNSTYRVVSVLTVLHQDWLNGKEYKCKVSNKGLPSSIEKTISKAKGQPREPQVYTLPPCQEEMTKNQVSLWCLVKGFYPSDIAVEWESNGQPENNYKTTPPVLDSDGSFFLYSRLTVDKSRWQEGNVFSCSVMHEALHNHYTQKSLSLSLGKGGGGSEVQLLESGGGLVQPGGSLRLSCAASGFTFGNYDMAWVRQAPGKRPEWVSSIDTGGDITHYADSVKGRFTISRDNAKNTLYLQMNSLRPEDTAVYWCATDEEYALGPNEFDYYGQGTLVTVSS chain 2: GPPCPPCPAPEFLGGPSVFLFPPKPKDTLMISRTPEVTCVVVDVSQEDPEVQFNWYVDGVEVHNAKTKPREEQFNSTYRVVSVLTVLHQDWLNGKEYKCKVSNKGLPSSIEKTISKAKGQPREPQVCTLPPSQEEMTKNQVSLSCAVKGFYPSDIAVEWESNGQPENNYKTTPPVLDSDGSFFLVSRLTVDKSRWQEGNVFSCSVMHEALHNHYTQKSLSLSLGKGGGGSEVQLLESGGGLVQPGGSLRLSCAASGFTFGNYDMAWVRQAPGKRPEWVSSIDTGGDITHYADSVKGRFTISRDNAKNTLYLQMNSLRPEDTAVYWCATDEEYALGPNEFDYYGQGTLVTVSS	–	7%
CIgE4A1A1(GS)2 (Fc fusion) chain 1: GPPCPPCPAPEFLGGPSVFLFPPKPKDTLMISRTPEVTCVVVDVSQEDPEVQFNWYVDGVEVHNAKTKPREEQFNSTYRVVSVLTVLHQDWLNGKEYKCKVSNKGLPSSIEKTISKAKGQPREPQVYTLPPCQEEMTKNQVSLWCLVKGFYPSDIAVEWESNGQPENNYKTTPPVLDSDGSFFLYSRLTVDKSRWQEGNVFSCSVMHEALHNHYTQKSLSLSLGKGGGGSGGGGSEVQLLESGGGLVQPGGSLRLSCAASGFTFGNYDMAWVRQAPGKRPEWVSSIDTGGDITHYADSVKGRFTISRDNAKNTLYLQMNSLRPEDTAVYWCATDEEYALGPNEFDYYGQGTLVTVSS chain 2: GPPCPPCPAPEFLGGPSVFLFPPKPKDTLMISRTPEVTCVVVDVSQEDPEVQFNWYVDGVEVHNAKTKPREEQFNSTYRVVSVLTVLHQDWLNGKEYKCKVSNKGLPSSIEKTISKAKGQPREPQVCTLPPSQEEMTKNQVSLSCAVKGFYPSDIAVEWESNGQPENNYKTTPPVLDSDGSFFLVSRLTVDKSRWQEGNVFSCSVMHEALHNHYTQKSLSLSLGKGGGGSGGGGSEVQLLESGGGLVQPGGSLRLSCAASGFTFGNYDMAWVRQAPGKRPEWVSSIDTGGDITHYADSVKGRFTISRDNAKNTLYLQMNSLRPEDTAVYWCATDEEYALGPNEFDYYGQGTLVTVSS	–	19%
